B1: Phage-422 (peptide)
peptide: MYWCPINMWDYCYA
B2: Phage-398 (peptide)
peptide: MDWCPRNMWNECFF
B3: Phage-395 (peptide)
peptide: MDWCPKDMWAECFN
B4: Phage-407 (peptide)
peptide: MNWCPIHMWNQCFA
B5: Phage-373 (peptide)
peptide: MDWCPRILWSDCFN
B6: Phage-402 (peptide)
peptide: MDWCPRHMWHECFH
B7: Phage-403 (peptide)
peptide: MSWCPWDMWNECFA
B8: Phage-363 (peptide)
peptide: MNWCPMHLWAECFN
B9: Phage-411 (peptide)
peptide: MSWCPRFMWHECFN
B10: Phage-385 (peptide)
peptide: ILRCQMNLQDECLN
B11: Phage-409 (peptide)
peptide: LHWCPITMWTYCYY
B12: Phage-396 (peptide)
peptide: TDWCPRDMWYLCFN
B13: Phage-400 (peptide)
peptide: MHWCPTYMWSECFA
B14: Phage-412 (peptide)
peptide: QHWCPRDMWNDCYA
B15: Phage-384 (peptide)
peptide: IMWCPTSLWNRCVT
B16: Phage-364 (peptide)
peptide: MDWCPRSLWAQCFY
B17: Phage-375 (peptide)
peptide: MNWCPRALWHECFL
B18: Phage-361 (peptide)
peptide: MHWCPRHLWSECFN
B19: Phage-386 (peptide)
peptide: NHWCPTTLWNRCVA
B20: Phage-394 (peptide)
peptide: MDWCPRYMWSDCFF
B21: Phage-406 (peptide)
peptide: MNWCPIDMWTECFN
B22: Phage-356 (peptide)
peptide: MDWCPMYLWDECFF
B23: Phage-380 (peptide)
peptide: MDYCPSYLWHECFA
B24: Phage-367 (peptide)
peptide: MDWCPSFLWYECFN
B25: Phage-405 (peptide)
peptide: MDWCPMSMWAFCFD
B26: Phage-379 (peptide)
peptide: MDWCPRNLWAECFS
B27: Phage-414 (peptide)
peptide: LYWCPRDMWAYCYS
B28: Phage-365 (peptide)
peptide: MDWCPSYLWPVCFN
B29: Phage-420 (peptide)
peptide: MFWCPSTMWNRCFD
B30: Phage-413 (peptide)
peptide: MDWCPSDMWSNCFN
B31: Phage-383 (peptide)
peptide: LAGCQRDLATVCVI
B32: Phage-415 (peptide)
peptide: MDWCPMYMWHKCFH
B33: Phage-357 (peptide)
peptide: MDWCPRLLWHECFN
B34: Phage-366 (peptide)
peptide: MHWCPLYLWDECFY
B35: Phage-369 (peptide)
peptide: MHWCPRDLWYECFA
B36: Phage-372 (peptide)
peptide: MDWCPRYLWVDCFA
B37: Phage-378 (peptide)
peptide: MHWCPLHLWNECFA
B38: Phage-382 (peptide)
peptide: ITWCPTSLWNRCLV
B39: Phage-397 (peptide)
peptide: MDWCPRAMWDYCFY
B40: Phage-377 (peptide)
peptide: MDWCPFDLWLECFN
B41: Phage-376 (peptide)
peptide: MDWCPRHLWTYCFH
B42: Phage-410 (peptide)
peptide: IDWCPRYMWHECFF
B43: Phage-417 (peptide)
peptide: IYWCPTAMWNRCSA
B44: Phage-393 (peptide)
peptide: MDWCPRDMWFECFN
B45: Phage-362 (peptide)
peptide: MDWCPRILWHECFS
B46: Phage-360 (peptide)
peptide: MDWCPMFLWHECFS
B47: Phage-370 (peptide)
peptide: MTWCPAYLWHECFN
B48: Phage-391 (peptide)
peptide: MDWCPFDMWADCFF
B49: Phage-401 (peptide)
peptide: MDWCPLDMWVLCFA
B50: Phage-399 (peptide)
peptide: MDWCPRSMWDSCFN
B51: Phage-368 (peptide)
peptide: MSWCPPYLWTVCYN
B52: Phage-418 (peptide)
peptide: MYWCPKYMWSECFA
B53: Phage-408 (peptide)
peptide: MFWCPKDMWAECFA
B54: Phage-404 (peptide)
peptide: MDWCPRDMWTSCFN
B55: Phage-381 (peptide)
peptide: MAWCPRILWHQCFN
B56: Phage-374 (peptide)
peptide: MAWCPLDLWDKCFY

Assays:
[1] = molecular target: T1, Anti-CD28 scFv (VH-linker 1-VL) (biotinylated (site not stated)); experiment: phage binding ELISA on captured biotinylated anti-CD28 scFv;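 also: crude clonal phage supernatants applied to the wells, bound phage read out with an HRP-conjugated anti-M13 antibody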
T1 construct: biotinylated and captured on neutravidin coated plates in the phage ELISA

[2] = molecular target: T1, Anti-CD28 scFv (VH-linker 1-VL); experiment: phage binding ELISA on captured anti-CD28 scFv, wells pre-incubated with soluble CD28 (competitor);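 also: crude clonal phage supernatants added without washing, bound phage detected by HRP-conjugated anti-M13 antibody, control wells held blocking buffer alone instead of CD28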
Procedure: Clonal phage were harvested as crude supernatants and screened via standard enzyme linked immunosorbent assays (ELISAs). […] Prior to the addition of clonal phage, wells were incubated with blocking buffer and CD28 soluble protein or blocking buffer alone. Without washing or aspirating, clonal phage supernatants were then added to the wells and incubated for a short time. Wells were then washed followed by detection of bound phage using a horse radish peroxidase conjugated anti-M13 antibody.

T1 sequence (scFv, as listed by the source): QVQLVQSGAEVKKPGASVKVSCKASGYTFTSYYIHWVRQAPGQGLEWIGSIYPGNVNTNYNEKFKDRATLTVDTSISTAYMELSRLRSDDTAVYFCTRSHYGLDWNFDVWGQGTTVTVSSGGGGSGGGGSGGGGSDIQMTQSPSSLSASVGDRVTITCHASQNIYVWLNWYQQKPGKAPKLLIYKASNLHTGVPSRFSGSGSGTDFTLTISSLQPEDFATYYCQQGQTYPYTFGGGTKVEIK

| Binder | CD28 scFv signal [1] | CD28 scFv signal in presence of CD28 [2] |
| --- | --- | --- |
| B1 | 0.109 | 0.088 |
| B2 | 2.1 | 0.43 |
| B3 | 2.11 | 0.457 |
| B4 | 1.37 | 0.133 |
| B5 | 0.847 | 0.113 |
| B6 | 1.81 | 0.171 |
| B7 | 1.52 | 0.108 |
| B8 | 1.39 | 0.14 |
| B9 | 1.11 | 0.246 |
| B10 | 0.083 | 0.077 |
| B11 | 1.21 | 0.516 |
| B12 | 2.11 | 0.301 |
| B13 | 1.84 | 0.161 |
| B14 | 1.08 | 0.149 |
| B15 | 0.161 | 0.129 |
| B16 | 1.39 | 0.14 |
| B17 | 0.759 | 0.107 |
| B18 | 1.43 | 0.478 |
| B19 | 0.078 | 0.093 |

| Binder | CD28 scFv signal [1] | CD28 scFv signal in presence of CD28 [2] |
| --- | --- | --- |
| B20 | 2.28 | 0.377 |
| B21 | 1.4 | 0.175 |
| B22 | 1.65 | 0.178 |
| B23 | 0.47 | 0.09 |
| B24 | 1.13 | 0.104 |
| B25 | 1.41 | 0.16 |
| B26 | 0.538 | 0.08 |
| B27 | 1.02 | 0.157 |
| B28 | 1.18 | 0.131 |
| B29 | 0.464 | 0.138 |
| B30 | 1.07 | 0.121 |
| B31 | 0.229 | 0.116 |
| B32 | 0.987 | 0.168 |
| B33 | 1.6 | 0.109 |
| B34 | 1.16 | 0.376 |
| B35 | 0.995 | 0.108 |
| B36 | 0.917 | 0.218 |
| B37 | 0.575 | 0.083 |
| B38 | 0.242 | 0.089 |

| Binder | CD28 scFv signal [1] | CD28 scFv signal in presence of CD28 [2] |
| --- | --- | --- |
| B39 | 2.11 | 0.339 |
| B40 | 0.65 | 0.12 |
| B41 | 0.757 | 0.207 |
| B42 | 1.18 | 0.164 |
| B43 | 0.817 | 0.073 |
| B44 | 2.42 | 0.778 |
| B45 | 1.39 | 0.174 |
| B46 | 1.44 | 0.193 |
| B47 | 0.985 | 0.139 |
| B48 | 2.53 | 0.215 |
| B49 | 1.84 | 0.169 |
| B50 | 2.02 | 0.142 |
| B51 | 1.1 | 0.326 |
| B52 | 0.741 | 0.099 |
| B53 | 1.26 | 0.113 |
| B54 | 1.41 | 0.179 |
| B55 | 0.322 | 0.129 |
| B56 | 0.77 | 0.141 |

Source: US20230357447A1 (JANUX THERAPEUTICS, published 2023)
